{"source": "patent US20120083519", "key": {"[1]": {"tested_on": "C-mip protein (c-maf inducing protein), human, full-length", "sequence (chain, as listed by the source)": "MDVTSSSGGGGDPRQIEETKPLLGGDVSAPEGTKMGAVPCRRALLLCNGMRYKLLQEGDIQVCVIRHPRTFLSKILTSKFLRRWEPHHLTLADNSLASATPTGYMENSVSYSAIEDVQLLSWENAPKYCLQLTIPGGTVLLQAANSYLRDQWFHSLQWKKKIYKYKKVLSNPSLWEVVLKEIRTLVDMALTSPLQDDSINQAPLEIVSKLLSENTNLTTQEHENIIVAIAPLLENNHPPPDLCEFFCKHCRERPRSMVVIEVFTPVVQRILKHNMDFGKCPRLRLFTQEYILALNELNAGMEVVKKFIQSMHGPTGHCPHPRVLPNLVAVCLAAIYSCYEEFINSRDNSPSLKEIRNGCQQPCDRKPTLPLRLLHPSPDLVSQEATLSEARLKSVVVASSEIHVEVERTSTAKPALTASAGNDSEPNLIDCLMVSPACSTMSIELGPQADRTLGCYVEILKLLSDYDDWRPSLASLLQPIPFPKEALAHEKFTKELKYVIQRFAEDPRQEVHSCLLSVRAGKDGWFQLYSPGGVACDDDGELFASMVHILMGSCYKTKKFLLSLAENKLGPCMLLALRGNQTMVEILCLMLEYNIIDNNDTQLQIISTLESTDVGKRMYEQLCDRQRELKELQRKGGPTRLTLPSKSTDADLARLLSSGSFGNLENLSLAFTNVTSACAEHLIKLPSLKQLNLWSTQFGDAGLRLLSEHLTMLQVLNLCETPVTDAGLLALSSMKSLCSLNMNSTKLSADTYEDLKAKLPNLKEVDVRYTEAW"}, "[2]": {"tested_on": "T1, nephrin (co-expressed in HEK cells)", "T1 sequence": "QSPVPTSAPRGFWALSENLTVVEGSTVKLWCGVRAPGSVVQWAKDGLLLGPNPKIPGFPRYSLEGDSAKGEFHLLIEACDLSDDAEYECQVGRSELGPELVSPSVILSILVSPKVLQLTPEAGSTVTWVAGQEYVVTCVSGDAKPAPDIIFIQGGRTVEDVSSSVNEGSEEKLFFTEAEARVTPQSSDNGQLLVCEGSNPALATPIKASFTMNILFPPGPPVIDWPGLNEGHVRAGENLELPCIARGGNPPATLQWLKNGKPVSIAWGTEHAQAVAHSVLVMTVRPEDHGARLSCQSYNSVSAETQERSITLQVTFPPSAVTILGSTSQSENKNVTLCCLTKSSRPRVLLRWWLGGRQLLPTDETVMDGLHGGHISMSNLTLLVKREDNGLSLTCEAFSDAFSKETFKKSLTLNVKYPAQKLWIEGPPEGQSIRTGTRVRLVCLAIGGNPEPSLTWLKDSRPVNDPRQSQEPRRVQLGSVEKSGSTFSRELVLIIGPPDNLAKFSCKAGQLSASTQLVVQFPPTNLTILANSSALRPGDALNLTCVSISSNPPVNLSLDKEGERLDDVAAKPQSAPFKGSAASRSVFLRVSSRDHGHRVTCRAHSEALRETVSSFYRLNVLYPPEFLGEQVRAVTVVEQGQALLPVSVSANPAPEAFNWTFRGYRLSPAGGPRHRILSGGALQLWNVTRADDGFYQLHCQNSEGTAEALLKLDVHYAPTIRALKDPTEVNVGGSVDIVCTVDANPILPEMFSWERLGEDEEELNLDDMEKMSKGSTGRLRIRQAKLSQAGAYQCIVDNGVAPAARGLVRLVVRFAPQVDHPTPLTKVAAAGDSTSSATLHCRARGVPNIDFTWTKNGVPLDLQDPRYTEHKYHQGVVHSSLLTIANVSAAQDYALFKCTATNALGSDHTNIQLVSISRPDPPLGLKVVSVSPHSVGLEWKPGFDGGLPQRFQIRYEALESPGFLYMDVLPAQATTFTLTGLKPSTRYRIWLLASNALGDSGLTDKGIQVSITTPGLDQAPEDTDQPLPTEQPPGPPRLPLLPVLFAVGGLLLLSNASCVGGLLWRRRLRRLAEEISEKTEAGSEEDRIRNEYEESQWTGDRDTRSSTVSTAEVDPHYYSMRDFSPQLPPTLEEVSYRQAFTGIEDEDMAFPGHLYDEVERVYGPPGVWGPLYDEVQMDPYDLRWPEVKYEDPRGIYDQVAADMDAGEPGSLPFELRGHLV"}}}
{"substance": "Fyn (expressed from Fyn plasmid in HEK 293 cells)", "values": [{"measurement": "phosphorylation of nephrin by Fyn at Y1208", "setting": "[1]", "value": "co-expression of c-mip reduced the phosphorylation of nephrin by Fyn at this tyrosine residue"}, {"measurement": "phosphorylation of nephrin at tyrosine residue Y1208", "setting": "[2]", "value": "Co-expression of nephrin and Fyn induced phosphorylation of nephrin at tyrosine residue Y1208"}]}
